For series [1], the target named is CI∆58, truncated CI repressor from bacteriophage TP901-1 (residues 1–122) (bacteriophage TP901-1) (UniProt O48503). Description: SEC; HiLoad 26/60 Superdex 75; native molecular weight estimated by comparison with globular protein standards.
For series [2] the target is unchanged. Description: native MS; apo CI∆58 6 μM in 250 mM ammonium acetate, pH 6.8; nano-ESI, quadrupole time-of-flight.
Series [3] has as its system CI-NTD (bacteriophage TP901-1 (host Lactococcus lactis)). Description: EMSA. As to conditions: 0.4 nM DNA; EMSA: ~0.4-0.5 nM Cy5 DNA, binding solution of ref 3 (not given), on ice 30 min, 2% agarose, 1x TBE, 0 °C; NMR: 300 mM NaCl, 298 K; native MS: 250 mM …. For orientation: In EMSA bound probe runs differently from free probe, usually more slowly.
For series [4], the target named is T1, CI∆58 (CI repressor, C-terminally truncated) (bacteriophage TP901-1 (host Lactococcus lactis)) (UniProt O48503).
T1 sequence: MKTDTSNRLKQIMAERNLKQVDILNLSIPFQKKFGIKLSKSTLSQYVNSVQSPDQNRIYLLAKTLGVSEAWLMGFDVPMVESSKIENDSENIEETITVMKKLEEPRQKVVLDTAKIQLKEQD
Description: EMSA. The settings on record: 0.4 nM DNA; EMSA: ~0.4-0.5 nM Cy5 DNA, binding solution of ref 3 (not given), on ice 30 min, 2% agarose, 1x TBE, 0 °C; NMR: 300 mM NaCl, 298 K; native MS: 250 mM ….

Series [5] deals with the molecule itself. Description: SEC; HiLoad 26/60 Superdex 75; native molecular weight estimated by comparison with globular protein standards.

We go through three molecules from PMC4941734, “Structural and dynamics studies of a truncated variant of CI repressor from bacteriophage TP901-1” (Scientific Reports, 2016).

A word on the stoichiometry N: it is a count of units in the complex or per binding partner. For “CI∆58, truncated CI repressor from bacteriophage TP901-1 (residues 1–122) (from UniProt O48503 1-122) (domain or fragment)”, the stoichiometry N in series [1] and in series [2] was 2 in each case.
As usually defined, the Kd is the free concentration of one partner at which half of the binding sites on the other are occupied at equilibrium, for simple one-to-one binding. A lower Kd goes with higher affinity. Regarding P5 fragment containing OL, the values for the Kd in series [3] and in series [4] were 1100 nM and 3 nM, respectively.

B1: CI-CTD1, synthetic peptide of the dimerization region of CI repressor from bacteriophage TP901-1 (residues 90–125) (peptide)
peptide: ENIEETITVMKKLEEPRQKVVLDTAKIQLKEQDEQ
notes: CI repressor of Lactococcus lactis bacteriophage TP901-1, dimerization region CTD1; printed as residues 90-125 and as a 35 residues peptide; Delivered as a lyophilized chloride salt, purity 98.45%; solubilised at pH 12 and brought back to pH 7.5; source: synthetic peptide, bought: CASLO
For B1, the “stoichiometry N” value in series [5] is 4.
